From IntAct's records for PubMed 16890161

B1: Low-density lipoprotein receptor-related protein 6 (Homo sapiens), O75581 (parent)
chain: MGAVLRSLLACSFCVLLRAAPLLLYANRRDLRLVDATNGKENATIVVGGLEDAAAVDFVFSHGLIYWSDVSEEAIKRTEFNKTESVQNVVVSGLLSPDGLACDWLGEKLYWTDSETNRIEVSNLDGSLRKVLFWQELDQPRAIALDPSSGFMYWTDWGEVPKIERAGMDGSSRFIIINSEIYWPNGLTLDYEEQKLYWADAKLNFIHKSNLDGTNRQAVVKGSLPHPFALTLFEDILYWTDWSTHSILACNKYTGEGLREIHSDIFSPMDIHAFSQQRQPNATNPCGIDNGGCSHLCLMSPVKPFYQCACPTGVKLLENGKTCKDGATELLLLARRTDLRRISLDTPDFTDIVLQLEDIRHAIAIDYDPVEGYIYWTDDEVRAIRRSFIDGSGSQFVVTAQIAHPDGIAVDWVARNLYWTDTGTDRIEVTRLNGTMRKILISEDLEEPRAIVLDPMVGYMYWTDWGEIPKIERAALDGSDRVVLVNTSLGWPNGLALDYDEGKIYWGDAKTDKIEVMNTDGTGRRVLVEDKIPHIFGFTLLGDYVYWTDWQRRSIERVHKRSAEREVIIDQLPDLMGLKATNVHRVIGSNPCAEENGGCSHLCLYRPQGLRCACPIGFELISDMKTCIVPEAFLLFSRRADIRRISLETNNNNVAIPLTGVKEASALDFDVTDNRIYWTDISLKTISRAFMNGSALEHVVEFGLDYPEGMAVDWLGKNLYWADTGTNRIEVSKLDGQHRQVLVWKDLDSPRALALDPAEGFMYWTEWGGKPKIDRAAMDGSERTTLVPNVGRANGLTIDYAKRRLYWTDLDTNLIESSNMLGLNREVIADDLPHPFGLTQYQDYIYWTDWSRRSIERANKTSGQNRTIIQGHLDYVMDILVFHSSRQSGWNECASSNGHCSHLCLAVPVGGFVCGCPAHYSLNADNRTCSAPTTFLLFSQKSAINRMVIDEQQSPDIILPIHSLRNVRAIDYDPLDKQLYWIDSRQNMIRKAQEDGSQGFTVVVSSVPSQNLEIQPYDLSIDIYSRYIYWTCEATNVINVTRLDGRSVGVVLKGEQDRPRAVVVNPEKGYMYFTNLQERSPKIERAALDGTEREVLFFSGLSKPIALALDSRLGKLFWADSDLRRIESSDLSGANRIVLEDSNILQPVGLTVFENWLYWIDKQQQMIEKIDMTGREGRTKVQARIAQLSDIHAVKELNLQEYRQHPCAQDNGGCSHICLVKGDGTTRCSCPMHLVLLQDELSCGEPPTCSPQQFTCFTGEIDCIPVAWRCDGFTECEDHSDELNCPVCSESQFQCASGQCIDGALRCNGDANCQDKSDEKNCEVLCLIDQFRCANGQCIGKHKKCDHNVDCSDKSDELDCYPTEEPAPQATNTVGSVIGVIVTIFVSGTVYFICQRMLCPRMKGDGETMTNDYVVHGPASVPLGYVPHPSSLSGSLPGMSRGKSMISSLSIMGGSSGPPYDRAHVTGASSSSSSSTKGTYFPAILNPPPSPATERSHYTMEFGYSSNSPSTHRSYSYRPYSYRHFAPPTTPCSTDVCDSDYAPSRRMTSVATAKGYTSDLNYDSEPVPPPPTPRSQYLSAEENYESCPPSPYTERSYSHHLYPPPPSPCTDSS

Variants of: B1
Conditions: with axin1_rat Axin1, O70239
axin1_rat Axin1, O70239, sequence (O70239 whole entry): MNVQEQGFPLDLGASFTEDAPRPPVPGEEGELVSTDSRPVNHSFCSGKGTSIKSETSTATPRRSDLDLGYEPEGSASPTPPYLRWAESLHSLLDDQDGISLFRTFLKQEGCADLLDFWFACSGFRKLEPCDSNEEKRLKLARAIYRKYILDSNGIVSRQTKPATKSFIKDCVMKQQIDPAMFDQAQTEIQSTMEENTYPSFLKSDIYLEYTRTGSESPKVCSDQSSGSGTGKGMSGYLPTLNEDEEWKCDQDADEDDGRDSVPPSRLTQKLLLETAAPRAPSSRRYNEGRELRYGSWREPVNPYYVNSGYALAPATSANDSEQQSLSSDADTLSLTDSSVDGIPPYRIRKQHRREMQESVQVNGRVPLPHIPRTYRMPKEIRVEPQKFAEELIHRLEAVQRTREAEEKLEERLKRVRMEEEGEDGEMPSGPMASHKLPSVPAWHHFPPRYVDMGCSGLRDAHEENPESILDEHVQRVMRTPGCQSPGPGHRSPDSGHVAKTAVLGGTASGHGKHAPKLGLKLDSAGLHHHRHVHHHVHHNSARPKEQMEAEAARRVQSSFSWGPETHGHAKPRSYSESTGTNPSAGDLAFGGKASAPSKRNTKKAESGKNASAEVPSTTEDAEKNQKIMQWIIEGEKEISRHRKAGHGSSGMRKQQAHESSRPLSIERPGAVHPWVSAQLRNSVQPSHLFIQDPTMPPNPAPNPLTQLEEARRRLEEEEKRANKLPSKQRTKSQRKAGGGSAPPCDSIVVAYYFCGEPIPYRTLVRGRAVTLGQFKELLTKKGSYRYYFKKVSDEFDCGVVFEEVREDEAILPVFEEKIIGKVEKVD

Row | Variant | effect of a mutation on the interaction
1 | S1490A | decreasing interaction
